Results as given in patent US20100008917A1 (published 2010).

T1: human IL-27 (huIL-27), as used in Example 5 (human, UniProt Q14213 21-229; Q8NEV9 29-243, limits assumed)
T1 sequence (looked up) 1: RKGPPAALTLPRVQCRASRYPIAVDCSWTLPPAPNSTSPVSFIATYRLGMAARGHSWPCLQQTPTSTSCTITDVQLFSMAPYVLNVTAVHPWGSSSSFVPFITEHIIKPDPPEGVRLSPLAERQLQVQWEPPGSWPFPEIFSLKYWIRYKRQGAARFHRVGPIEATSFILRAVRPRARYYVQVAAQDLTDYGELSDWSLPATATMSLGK
T1 sequence (looked up) 2: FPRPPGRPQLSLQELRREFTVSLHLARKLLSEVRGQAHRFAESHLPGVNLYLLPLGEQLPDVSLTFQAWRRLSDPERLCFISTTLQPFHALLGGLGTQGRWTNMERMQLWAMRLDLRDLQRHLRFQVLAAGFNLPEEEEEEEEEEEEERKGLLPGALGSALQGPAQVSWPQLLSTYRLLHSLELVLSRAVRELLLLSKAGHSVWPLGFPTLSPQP

T2: mouse IL-27 (muIL-27), as used in Example 5 (mouse, UniProt O35228 19-228; Q8K3I6 29-234, limits assumed)
T2 sequence (looked up) 1: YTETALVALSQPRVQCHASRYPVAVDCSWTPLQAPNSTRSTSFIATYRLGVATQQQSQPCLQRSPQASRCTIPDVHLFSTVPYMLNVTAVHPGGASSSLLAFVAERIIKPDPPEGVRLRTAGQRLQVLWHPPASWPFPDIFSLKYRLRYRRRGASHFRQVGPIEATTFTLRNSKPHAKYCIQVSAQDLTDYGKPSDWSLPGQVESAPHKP
T2 sequence (looked up) 2: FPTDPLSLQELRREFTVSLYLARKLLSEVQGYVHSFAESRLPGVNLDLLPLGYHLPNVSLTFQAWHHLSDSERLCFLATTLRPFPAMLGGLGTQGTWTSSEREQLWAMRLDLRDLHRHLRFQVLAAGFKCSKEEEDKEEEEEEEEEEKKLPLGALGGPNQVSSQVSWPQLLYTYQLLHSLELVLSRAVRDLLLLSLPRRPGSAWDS


Assays:
Test in all cases: cell-based or functional assay
[1] = target: T1, human IL-27 (huIL-27), as used in …
[2] = target: T2, mouse IL-27 (muIL-27), as used in …
[3] = target: T1, human IL-27 (huIL-27), as used in …; remark: listed apart in the source
[4] = target: T2, mouse IL-27 (muIL-27), as used in …; remark: listed apart in the source

IC50 (nM), phospho-STAT3 in total human PBMCs stimulated with the EC90 of the ligand [1] [nM] | IC50 (nM), phospho-STAT3 in total human PBMCs stimulated with the EC90 of the ligand [2] [nM] | IC50 (nM), phospho-STAT3 in mouse spleens stimulated with the EC90 of the ligand [3] [nM] | IC50 (nM), phospho-STAT3 in mouse spleens stimulated with the EC90 of the ligand [4] [nM] | Binder
0.95 | 2.97 | 0.32 | 0.14 | human IL27RA-Fc5 fusion protein (Fc fusion) QGSAGPLQCYGVGPLGDLNCSWEPLGDLGAPSELHLQSQKYRSNKTQTVAVAAGRSWVAIPREQLTMSDKLLVWGTKAGQPLWPPVFVNLETQMKPNAPRLGPDVDFSEDDPLEATVHWAPPTWPSHKVLICQFHYRRCQEAAWTLLEPELKTIPLTPVEIQDLELATGYKVYGRCRMEKEEDLWGEWSPILSFQTPPSAPKDVWVSGNLCGTPGGEEPLLLWKAPGPCVQVSYKVWFWVGGRELSPEGITCCCSLIPSGAEWARVSAVNATSWEPLTNLSLVCLDSASAPRSVAVSSIAGSTELLVTWQPGPGEPLEHVVDWARDGDPLEKLNWVRLPPGNLSALLPGNFTVGVPYRITVTAVSASGLASASSVWGFREELAPLVGPTLWRLQDAPPGTPAIAWGEVPRHQLRGHLTHYTLCAQSGTSPSVCMNVSGNTQSVTLPDLPWGPCELWVTASTIAGQGPPGPILRLHLPDNTEPKSSDKTHTCPPCPAPEAEGAPSVFLFPPKPKDTLMISRTPEVTCVVVDVSHEDPEVKFNWYVDGVEVHNAKTKPREEQYNSTYRVVSVLTVLHQDWLNGKEYKCKVSNKALPSSIEKTISKAKGQPREPQVYTLPPSRDELTKNQVSLTCLVKGFYPSDIAVEWESNGQPENNYKTTPPVLDSDGSFFLYSKLTVDKSRWQQGNVFSCSVMHEALHNHYTQKSLSLSPGK
1370 | 4.83 | 9.3 | 0.18 | IL27RAm(mFc1) (Fc fusion) TRPHGSPGPLQCYSVGPLGILNCSWEPLGDLETPPVLYHQSQKYHPNRVWEVKVPSKQSWVTIPREQFTMADKLLIWGTQKGRPLWSSVSVNLETQMKPDTPQIFSQVDISEEATLEATVQWAPPVWPPQKALTCQFRYKECQAEAWTRLEPQLKTDGLTPVEMQNLEPGTCYQVSGRCQVENGYPWGEWSSPLSFQTPFLDPEDVWVSGTVCETSGKRAALLVWKDPRPCVQVTYTVWFGAGDITTTQEEVPCCKSPVPAWMEWAVVSPGNSTSWVPPTNLSLVCLAPESAPCDVGVSSADGSPGIKVTWKQGTRKPLEYVVDWAQDGDSLDKLNWTRLPPGNLSTLLPGEFKGGVPYRITVTAVYSGGLAAAPSVWGFREELVPLAGPAVWRLPDDPPGTPVVAWGEVPRHQLRGQATHYTFCIQSRGLSTVCRNVSSQTQTATLPNLHSGSFKLWVTVSTVAGQGPPGPDLSLHLPDNRIREPRGPTIKPCPPCKCPAPNLLGGPSVFIFPPKIKDVLMISLSPIVTCVVVDVSEDDPDVQISWFVNNVEVHTAQTQTHREDYNSTLRVVSALPIQHQDWMSGKEFKCKVNNKDLPAPIERTISKPKGSVRAPQVYVLPPPEEEMTKKQVTLTCMVTDFMPEDIYVEWTNNGKTELNYKNTEPVLDSDGSYFMYSKLRVEKKNWVERNSYSCSVVHEGLHNHHTTKSFSRTPGK
